# The supplement of paper PMC7125110
# ± gives the standard error. For part of these data: Fewer inactive variants are shown than the library holds.
# B1: glmS ribozyme (parent)
# chain: AUAAAAGCGCCAGAACUACAGAAAUGUAGUUGACGAGGAGGAGGUUUAUCGAAUUUUCGGCGGAUGCCUCCAAA
# Experiments:
# Details in all cases: with glucosamine-6-phosphate
# glucosamine-6-phosphate [1] = variants of: B1; experiment: kcat; higher = faster cleavage; RNA array
# Summary of the method: (§1)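 Glucosamine-6-phosphate in HEPES/KCl/Mg(OAc)2 buffer, at 40 μM to 10 mM, was flowed over barcoded ribozyme variants transcribed in situ by E. coli RNA polymerase on sequenced MiSeq chips. Tracking was through a hybridised Cy3 probe at 37 °C. kobs, kcat and KM came from exponential decay fits and weighted Michaelis–Menten fits of normalised per-tile medians.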
# glucosamine-6-phosphate [2] = variants of: B1; experiment: KM; higher = weaker cofactor use; RNA array
# Summary of the method: as §1
# glucosamine-6-phosphate [3] = variants of: B1; experiment: self-cleavage kobs at 40 uM GlcN6P; higher = faster cleavage; RNA array
# Summary of the method: as §1
# glucosamine-6-phosphate [4] = variants of: B1; experiment: self-cleavage kobs at 2500 uM GlcN6P; higher = faster cleavage; RNA array
# Summary of the method: as §1
# glucosamine-6-phosphate [5] = variants of: B1; experiment: self-cleavage kobs at 10000 uM GlcN6P; higher = faster cleavage; RNA array
# Summary of the method: as §1
# glucosamine-6-phosphate [6] = variants of: B1; experiment: self-cleavage kobs at 640 uM GlcN6P; higher = faster cleavage; RNA array
# Summary of the method: as §1
# glucosamine-6-phosphate [7] = variants of: B1; experiment: self-cleavage kobs at 160 uM GlcN6P; higher = faster cleavage; RNA array
# Summary of the method: as §1
Variant,kcat (glucosamine-6-phosphate [1]),KM (glucosamine-6-phosphate [2]),self-cleavage kobs at 40 uM GlcN6P (glucosamine-6-phosphate [3]),self-cleavage kobs at 2500 uM GlcN6P (glucosamine-6-phosphate [4]),self-cleavage kobs at 10000 uM GlcN6P (glucosamine-6-phosphate [5]),self-cleavage kobs at 640 uM GlcN6P (glucosamine-6-phosphate [6]),self-cleavage kobs at 160 uM GlcN6P (glucosamine-6-phosphate [7])
U45A C58U,0.000219 ± 4.8e-05 s⁻¹,4210 ± 1900 µM,< 1e-05 s⁻¹,9.07e-05 ± 1.6e-05 s⁻¹,0.000149 ± 2.4e-05 s⁻¹,,
U31A G32C,0.000234 ± 1.1e-05 s⁻¹,1950 ± 290 µM,,0.000141 ± 3e-05 s⁻¹,0.000194 ± 2.1e-05 s⁻¹,5.55e-05 ± 1.8e-05 s⁻¹,
G41C C67U C70A,5.68e-05 ± 1.2e-05 s⁻¹,9730 ± 3700 µM,,,2.88e-05 ± 1.3e-05 s⁻¹,,
A15C C71U,0.00455 ± 0.0014 s⁻¹,1580 ± 690 µM,0.000165 ± 1.6e-05 s⁻¹,0.00266 ± 0.00039 s⁻¹,0.00453 ± 0.00056 s⁻¹,0.00111 ± 0.00013 s⁻¹,0.000358 ± 4.6e-05 s⁻¹
G38A C61A,< 1e-05 s⁻¹,,,,,,
G38A C61G,1.44e-05 ± 3.1e-06 s⁻¹,,,,,,
A12G U55G,0.00137 ± 0.00037 s⁻¹,6630 ± 3200 µM,,0.000784 ± 0.00017 s⁻¹,0.000815 ± 5.8e-05 s⁻¹,0.000113 ± 1.7e-05 s⁻¹,
U65G G66A,0.00234 ± 0.0003 s⁻¹,2300 ± 450 µM,4.28e-05 ± 9.4e-06 s⁻¹,0.0013 ± 0.0002 s⁻¹,0.00183 ± 0.00025 s⁻¹,0.000612 ± 0.0001 s⁻¹,0.000131 ± 2.3e-05 s⁻¹
A6C A12C,4.52e-05 ± 3.2e-06 s⁻¹,1190 ± 370 µM,,2.86e-05 ± 7.1e-06 s⁻¹,4.11e-05 ± 6.6e-06 s⁻¹,,
C16G C58U,3.48e-05 ± 3.2e-06 s⁻¹,,< 1e-05 s⁻¹,3.89e-05 ± 9.2e-06 s⁻¹,3.22e-05 ± 5.6e-06 s⁻¹,,
G29A U65A,0.000167 ± 6.7e-05 s⁻¹,,,0.000122 ± 2.8e-05 s⁻¹,,0.000132 ± 3e-05 s⁻¹,
A48G U54C,0.000123 ± 1.5e-05 s⁻¹,1310 ± 500 µM,,0.000101 ± 1.8e-05 s⁻¹,0.000104 ± 1.3e-05 s⁻¹,3.59e-05 ± 1.1e-05 s⁻¹,
U31G A53C,0.00293 ± 0.00056 s⁻¹,2500 ± 770 µM,3.19e-05 ± 1.2e-05 s⁻¹,0.00165 ± 0.00028 s⁻¹,0.00219 ± 0.00037 s⁻¹,0.000646 ± 0.00015 s⁻¹,0.000223 ± 5.6e-05 s⁻¹
U31C U46G,0.000788 ± 0.00029 s⁻¹,,,0.000722 ± 0.00013 s⁻¹,0.000568 ± 7.8e-05 s⁻¹,0.000198 ± 3.6e-05 s⁻¹,
A14U U46A,0.000437 ± 0.0001 s⁻¹,2000 ± 930 µM,,0.000343 ± 3.4e-05 s⁻¹,0.000323 ± 3.5e-05 s⁻¹,9.67e-05 ± 1.3e-05 s⁻¹,2.43e-05 ± 9.4e-06 s⁻¹
G40C A52G,0.00018 ± 3.1e-05 s⁻¹,2990 ± 1200 µM,,0.000102 ± 1.5e-05 s⁻¹,0.000133 ± 1.5e-05 s⁻¹,2.38e-05 ± 8.1e-06 s⁻¹,
C16U G43A,8.72e-05 ± 3e-05 s⁻¹,,< 1e-05 s⁻¹,2.82e-05 ± 1e-05 s⁻¹,6.17e-05 ± 1e-05 s⁻¹,,

Variant,kcat (glucosamine-6-phosphate [1]),KM (glucosamine-6-phosphate [2]),self-cleavage kobs at 40 uM GlcN6P (glucosamine-6-phosphate [3]),self-cleavage kobs at 2500 uM GlcN6P (glucosamine-6-phosphate [4]),self-cleavage kobs at 10000 uM GlcN6P (glucosamine-6-phosphate [5]),self-cleavage kobs at 640 uM GlcN6P (glucosamine-6-phosphate [6]),self-cleavage kobs at 160 uM GlcN6P (glucosamine-6-phosphate [7])
A6U A15U,3.81e-05 ± 2.5e-06 s⁻¹,1260 ± 360 µM,,2.31e-05 ± 8.8e-06 s⁻¹,3.44e-05 ± 7e-06 s⁻¹,,
C8G C61A,< 1e-05 s⁻¹,,< 1e-05 s⁻¹,< 1e-05 s⁻¹,,,< 1e-05 s⁻¹
G13C A15U,0.000131 ± 1.4e-05 s⁻¹,2810 ± 940 µM,,5.63e-05 ± 7.5e-06 s⁻¹,0.000103 ± 6.3e-06 s⁻¹,3.78e-05 ± 1e-05 s⁻¹,
G13C A15G,0.000223 ± 1.1e-05 s⁻¹,2950 ± 270 µM,,9.91e-05 ± 1.3e-05 s⁻¹,0.000176 ± 2.8e-05 s⁻¹,4.12e-05 ± 8e-06 s⁻¹,
G7A,4.39e-05 ± 1.2e-06 s⁻¹,4040 ± 350 µM,,1.71e-05 ± 2.6e-06 s⁻¹,3.13e-05 ± 1.1e-06 s⁻¹,,
C61A U65A,< 1e-05 s⁻¹,,,< 1e-05 s⁻¹,,,
U57C C67G,2.59e-05 ± 3.7e-06 s⁻¹,,< 1e-05 s⁻¹,3.12e-05 ± 1.1e-05 s⁻¹,2.21e-05 ± 8.5e-06 s⁻¹,,
G32A G66C,5.52e-05 ± 1.5e-06 s⁻¹,1250 ± 160 µM,,3.72e-05 ± 1.6e-05 s⁻¹,4.9e-05 ± 1.4e-05 s⁻¹,,
C34G U47G C58A C68A,5.47e-05 ± 1.4e-05 s⁻¹,,,6.86e-05 ± 2.9e-05 s⁻¹,,6.8e-05 ± 3.3e-05 s⁻¹,6.99e-05 ± 1.7e-05 s⁻¹
G43A C70U,6.4e-05 ± 1.2e-05 s⁻¹,,,4.94e-05 ± 8.8e-06 s⁻¹,5.31e-05 ± 8.3e-06 s⁻¹,,
G41A U45A,0.000317 ± 4.9e-05 s⁻¹,140 ± 59 µM,9.19e-05 ± 1.9e-05 s⁻¹,0.000354 ± 8.1e-05 s⁻¹,0.000299 ± 5.4e-05 s⁻¹,0.000296 ± 5.5e-05 s⁻¹,0.000128 ± 3e-05 s⁻¹
A12C U45A,0.0415 ± 0.0022 s⁻¹,1690 ± 110 µM,0.000958 ± 0.00019 s⁻¹,0.0233 ± 0.0073 s⁻¹,0.037 ± 0.013 s⁻¹,0.0118 ± 0.003 s⁻¹,0.00352 ± 0.00099 s⁻¹
G37A G38C C67U C68G C71U,2.2e-05 ± 4e-06 s⁻¹,,,,,,
C68A C70G,< 1e-05 s⁻¹,,< 1e-05 s⁻¹,,< 1e-05 s⁻¹,,
G44C U47A,8.35e-05 ± 6.6e-06 s⁻¹,1270 ± 350 µM,,5.07e-05 ± 1.6e-05 s⁻¹,7.67e-05 ± 1.8e-05 s⁻¹,,
A15G G59U C67U,5.74e-05 ± 6.3e-06 s⁻¹,2230 ± 1000 µM,,,4.69e-05 ± 1.5e-05 s⁻¹,,
A53G U57G,5.45e-05 ± 1.2e-06 s⁻¹,1880 ± 180 µM,,3.07e-05 ± 1.4e-05 s⁻¹,4.6e-05 ± 8.2e-06 s⁻¹,,
